Here are results for 12 molecules from patent US20180155451A1 (published 2018).

T1: FcγRIIa H (human, UniProt P12318 34-217)
T1 construct: extracellular domain; also called FcgRIIa H type; 2aH
T1 sequence (looked up): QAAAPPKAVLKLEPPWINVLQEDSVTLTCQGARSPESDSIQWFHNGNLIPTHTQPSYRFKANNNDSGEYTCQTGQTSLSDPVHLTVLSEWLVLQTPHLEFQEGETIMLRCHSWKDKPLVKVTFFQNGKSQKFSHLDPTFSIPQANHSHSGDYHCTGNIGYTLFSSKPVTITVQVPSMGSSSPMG

T2: FcγRIIa H (FcγRIIa type H, His at position 131), extracellular domain with C-terminal His tag (human, UniProt P12318 34-217)
T2 construct: extracellular domain; also called 2aH; FcgRIIa H; not shown: His tag at the C terminus
T2 sequence (looked up): T1 sequence (looked up)

T3: FcγRIIb, extracellular domain with C-terminal His tag (human, UniProt P31994 43-217)
T3 construct: extracellular domain; also called 2b; FcgRIIb; not shown: His tag at the C terminus
T3 sequence (looked up): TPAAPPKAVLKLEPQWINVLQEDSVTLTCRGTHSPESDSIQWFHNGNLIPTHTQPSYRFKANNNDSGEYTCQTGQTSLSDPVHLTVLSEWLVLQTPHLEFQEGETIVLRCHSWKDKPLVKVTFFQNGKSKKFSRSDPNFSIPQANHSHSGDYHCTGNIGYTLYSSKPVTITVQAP

T4: FcγRIIb (human, UniProt P31994 43-217)
T4 construct: extracellular domain; also called FcgRIIb; 2b
T4 sequence (looked up): T3 sequence (looked up)

T5: FcγRIIb extracellular domain with C-terminal His tag (human, UniProt P31994 43-217)
T5 construct: extracellular domain; also called FcgRIIb; 2b; not shown: His tag at the C terminus
T5 sequence (looked up): T3 sequence (looked up)

B1: GpH7-A5/GpH7-B3 variant D265_19Q/GpL16-k0 (antibody, human IgG1, kappa)
heavy 1: not shown
heavy 2: not shown
light: DIVMTQSPLSLPVTPGEPASISCQASESLVHSNRNTYLHWYLQKPGQSPQLLIYKVSNRFSGVPDRFSGSGSGTDFTLKISRVEAEDVGVYYCSQNTHVPPTFGQGTKVEIERTVAAPSVFIFPPSDEQLKSGTASVVCLLNNFYPREAKVQWKVDNALQSGNSQESVTEQDSKDSTYSLSSTLTLSKADYEKHKVYACEVTHQGLSSPVTKSFNRGEC
notes: Heterodimerized anti-glypican-3 IgG1; substitution in only one H chain (the GpH7-B3 chain); also called He Ab
B2: GpH7-A5/GpH7-B3 variant H268_04F/GpL16-k0 (antibody, human IgG1, kappa)
heavy 1: not shown
heavy 2: not shown
light: B1 light
notes: as for B1
B3: GpH7-A5/GpH7-B3 variant H268_08L/GpL16-k0 (antibody, human IgG1, kappa)
heavy 1: not shown
heavy 2: not shown
light: B1 light
notes: as for B1
B4: GpH7-A5/GpH7-B3 variant H268_06M/GpL16-k0 (antibody, human IgG1, kappa)
heavy 1: not shown
heavy 2: not shown
light: B1 light
notes: as for B1
B5: GpH7-A5/GpH7-B3 variant V266_05P/GpL16-k0 (antibody, human IgG1, kappa)
heavy 1: not shown
heavy 2: not shown
light: B1 light
notes: as for B1
B6: GpH7-A5/GpH7-B3 variant D265_20W/GpL16-k0 (antibody, human IgG1, kappa)
heavy 1: not shown
heavy 2: not shown
light: B1 light
notes: as for B1
B7: GpH7-A5/GpH7-B3 variant E269_01G/GpL16-k0 (antibody, human IgG1, kappa)
heavy 1: not shown
heavy 2: not shown
light: B1 light
notes: as for B1
B8: GpH7-A5/GpH7-B3 variant V266_01G/GpL16-k0 (antibody, human IgG1, kappa)
heavy 1: not shown
heavy 2: not shown
light: B1 light
notes: Heterodimerized IgG1 (He Ab); mutation only in the GpH7-B3 chain; also called He Ab V266G
B9: GpH7-A5/GpH7-B3 variant D270_01G/GpL16-k0 (antibody, human IgG1, kappa)
heavy 1: not shown
heavy 2: not shown
light: B1 light
notes: He Ab: the mutation stands only in the GpH7-B3-derived H chain; also called He Ab D270G
B10: GpH7-A5/GpH7-B3 variant D270_06M/GpL16-k0 (antibody, human IgG1, kappa)
heavy 1: not shown
heavy 2: not shown
light: B1 light
notes: He Ab: the mutation stands only in the GpH7-B3-derived H chain; also called He Ab D270M
B11: GpH7-A5/GpH7-B3 variant D270_11K/GpL16-k0 (antibody, human IgG1, kappa)
heavy 1: not shown
heavy 2: not shown
light: B1 light
notes: He Ab: the mutation stands only in the GpH7-B3-derived H chain; also called He Ab D270K
B12: GpH7-A5/GpH7-B3 variant Q295_01G/GpL16-k0 (antibody, human IgG1, kappa)
heavy 1: not shown
heavy 2: not shown
light: B1 light
notes: He Ab: the mutation stands only in the GpH7-B3-derived H chain; also called He Ab Q295G

For one assay, the target named is T1, FcγRIIa H. Briefly: ratio of He/Con_2aH to He/Con_2b (relative SPR binding to FcγRIIa H over that of the same antibody to FcγRIIb). For orientation: Surface plasmon resonance follows binding to a sensor surface in real time, without labels.
With B1, the “He_2aH/2b (IIaH/IIb)” value was 1.43.

In the case of B2, the “He_2aH/2b (IIaH/IIb)” value was 1.24.

As to B3, the “He_2aH/2b (IIaH/IIb)” value is 1.25.

Turning to B4, the “He_2aH/2b (IIaH/IIb)” value worked out at 1.29.

Consider B5, for which the “He_2aH/2b (IIaH/IIb)” value came out at 1.91.

B6: the “He_2aH/2b (IIaH/IIb)” value is 2.86.

Turning to B7, the “He_2aH/2b (IIaH/IIb)” value came out at 1.39.

The target of the next assay is T2, FcγRIIa H (FcγRIIa type H, His at …). Briefly: SPR (Biacore), antibody captured on antigen-peptide chip, FcγR as analyte; GpH7-A5/GpH7-B3/GpL16-k0 = 100. As for the experimental part: (§1) The heterodimerized antibodies He Abs in which one of the H chains was introduced with an alteration were assayed for their binding activities to each activating FcγR and inhibitory FcγR according to the method described in Example 4. […] The activating FcγRs in FIGS. 26, 27, 28, and 29 are FcγRIa, FcγRIIa (R), FcγRIIa (H), and FcγRIIIa, respectively.
(§2) Analysis of interaction between objective antibody and the FcγR was carried out using Biacore T100 (GE Healthcare). HBS-EP+ (GE Healthcare) was used as the running buffer, and the measurement temperature was set to 25° C. Chips produced by immobilizing the antigen peptide by the amine coupling method to a Series S Sencor Chip CM5 (GE Healthcare), or alternatively, chips produced by allowing preliminarily biotinylated antigen peptides to interact with and immobilize onto a Series S Sensor Chip SA (certified) (GE Healthcare) were used. Antibodies of interest were captured onto an antigen peptide-immobilized chip, and allowed to interact to each FcγR diluted with running buffer. To regenerate and repeatedly use the chip, the antibodies captured on the chip were washed off by reacting 10 mM glycine-HCl, pH 1.5.
Regarding B8, the “He/Con_2aH (relative binding activity)” value is 36.7 % of control.

The next assay deals with T3, FcγRIIb, extracellular domain with …. The assay is described as above. As for the experimental part: as §1, §2
Regarding B8, the “He/Con_2b (relative binding activity)” value is 51.5 % of control.

For another assay, the target named is T4, FcγRIIb. The assay can be described thus: SPR (Biacore), antibody captured on antigen-peptide chip, FcγR as analyte; binding relative to GpH7-A5/GpH7-B3/GpL16-k0 = 100.
Regarding B1, the He/Con_2b is 33.4 % of HeCon Ab.

As for B2, the He/Con_2b is 89.6 % of HeCon Ab.

Consider B3, for which the He/Con_2b is 67.8 % of HeCon Ab.

Take B4: the He/Con_2b was 65.7 % of HeCon Ab.

In the case of B5, the He/Con_2b is 0.4 % of HeCon Ab.

Consider B6, for which the He/Con_2b is 1.1 % of HeCon Ab.

For B7, the He/Con_2b is 51.5 % of HeCon Ab.

The next assay has as its target T1, FcγRIIa H. Described as above.
As to B1, the He/Con_2aH was 47.7 % of HeCon Ab.

In the case of B2, the He/Con_2aH is 111 % of HeCon Ab.

Regarding B3, the He/Con_2aH is 85 % of HeCon Ab.

Take B4: the He/Con_2aH is 84.8 % of HeCon Ab.

For B5, the He/Con_2aH is 0.7 % of HeCon Ab.

On to B6, for which the He/Con_2aH is 3.2 % of HeCon Ab.

Consider B7, for which the He/Con_2aH was 71.5 % of HeCon Ab.

For another assay, the target named is T6, FcγRIIIa extracellular domain with C-terminal His tag (human, UniProt P08637 17-208).
T6 construct: extracellular domain; also called FcgRIIIa; 3a; not shown: His tag at the C terminus
T6 sequence (P08637 17-208): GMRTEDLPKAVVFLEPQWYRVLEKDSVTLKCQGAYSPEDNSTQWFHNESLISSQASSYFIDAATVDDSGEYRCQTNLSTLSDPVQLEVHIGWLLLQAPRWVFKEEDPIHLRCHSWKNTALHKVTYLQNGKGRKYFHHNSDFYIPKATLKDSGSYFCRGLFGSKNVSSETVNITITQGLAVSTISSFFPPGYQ
The assay can be described thus: SPR (Biacore), antibody captured via antigen peptide, FcγR as analyte; binding relative to GpH7-A5/GpH7-B3/GpL16-k0 = 100.
In the case of B9, the He/Con_3a was 38.5 relative (control = 100).

With B10, the He/Con_3a is 66.3 relative (control = 100).

As for B11, the He/Con_3a is 41 relative (control = 100).

As for B12, the He/Con_3a is 73 relative (control = 100).

A further assay concerns the target T5, FcγRIIb extracellular domain with …. The assay is described as above.
With B9, the He/Con_2b was 30.5 relative (control = 100).

Consider B10, for which the He/Con_2b is 48.2 relative (control = 100).

With B11, the He/Con_2b was 20.3 relative (control = 100).

Turning to B12, the He/Con_2b is 46 relative (control = 100).

For a further assay, the target named is T2, FcγRIIa H (FcγRIIa type H, His at …). Briefly: ratio of He/Con_2aH (FcγRIIa H) to He/Con_2b (FcγRIIb), SPR relative binding. As for the experimental part:
as §1, §2
Take B8: the “He_2aH/2b (IIaH/IIb ratio)” value is 0.71.

The next assay addresses T6, FcγRIIIa extracellular domain with …. Briefly: ratio of He/Con_3a to He/Con_2b (FcγRIIIa over FcγRIIb), SPR relative binding. As for the experimental part:
as §1, §2
Regarding B9, the “IIIa/IIb (He_3a/2b)” value came to 1.26.

Turning to B10, the “IIIa/IIb (He_3a/2b)” value came out at 1.38.

With B11, the “IIIa/IIb (He_3a/2b)” value came out at 2.02.

As for B12, the “IIIa/IIb (He_3a/2b)” value is 1.59.
